Measured values: the supplement of paper PMC10567573

B1: CD207 (parent)
chain: MTVEKEAPDAHFTVDKQNISLWPR

Variants of: B1
Assay: protein stability index of a GFP-peptide fusion (GPS, HEK-293T) (PSI 1-6); higher = more stable
Conditions: c terminus: a fixed tail appended
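Also: lentivirally expressed fusions sorted by FACS into six bins by GFP to DsRed ratio, PSI derived from sequencing read proportions per bin multiplied by bin number.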

Question: With MTVEKEAPDAHFTVDKQLISLWPR [N18L] as the variant, how does the protein stability index read?
Answer: 2.88

Question: For MTVEKEAPDAHFTVDKQRISLWPR [N18R], which protein stability index is on record?
Answer: 3.14

Question: For MTVEKEAPDAHFTVDKQMISLWPR [N18M], which protein stability index is on record?
Answer: 3.5

Question: With MTVEKEAPDAHFTVDKQFISLWPR [N18F] as the variant, how does the protein stability index read?
Answer: 3

Question: Which protein stability index does the source give for MTVEKEAPDAHFTVDKQEISLWPR [N18E] here?
Answer: 3.34

Question: With MTVEKEAPDAHFTVDKQWISLWPR [N18W] as the variant, how does the protein stability index read?
Answer: 2.05

Question: For MTVEKEAPDAHFTVDKQVISLWPR [N18V], which protein stability index is on record?
Answer: 2.29

Question: With MTVEKEAPDAHFTVDKQAISLWPR [N18A] as the variant, how does the protein stability index read?
Answer: 4.24

Question: With MTVEKEAPDAHFTVDKQQISLWPR [N18Q] as the variant, how does the protein stability index read?
Answer: 2.86

Question: Which protein stability index does the source give for MTVEKEAPDAHFTVDKQKISLWPR [N18K] here?
Answer: 3.4

Question: Which protein stability index does the source give for MTVEKEAPDAHFTVDKQYISLWPR [N18Y] here?
Answer: 2.97

Question: Which protein stability index does the source give for MTVEKEAPDAHFTVDKQGISLWPR [N18G] here?
Answer: 3

Question: With MTVEKEAPDAHFTVDKQPISLWPR [N18P] as the variant, how does the protein stability index read?
Answer: 3.39

Question: With MTVEKEAPDAHFTVDKQTISLWPR [N18T] as the variant, how does the protein stability index read?
Answer: 3.62

Question: Which protein stability index does the source give for MTVEKEAPDAHFTVDKQDISLWPR [N18D] here?
Answer: 3.21

Question: With MTVEKEAPDAHFTVDKQHISLWPR [N18H] as the variant, how does the protein stability index read?
Answer: 3.46

Question: For MTVEKEAPDAHFTVDKQIISLWPR [N18I], which protein stability index is on record?
Answer: 1.95

Question: For MTVEKEAPDAHFTVDKQCISLWPR [N18C], which protein stability index is on record?
Answer: 2.44

Question: For MTVEKEAPDAHFTVDKQSISLWPR [N18S], which protein stability index is on record?
Answer: 3.56

Question: Which protein stability index does the source give for MTVEKEAPDAHATVDKQNISLWPR [F12A] here?
Answer: 3.78

Question: For MTVEKEAPDAHKTVDKQNISLWPR [F12K], which protein stability index is on record?
Answer: 4.05

Question: For MTVEKEAPDAHVTVDKQNISLWPR [F12V], which protein stability index is on record?
Answer: 3.74

Question: Which protein stability index does the source give for MTVEKEAPDAHHTVDKQNISLWPR [F12H] here?
Answer: 4.02

Question: With MTVEKEAPDAHITVDKQNISLWPR [F12I] as the variant, how does the protein stability index read?
Answer: 3.96

Question: With MTVEKEAPDAHSTVDKQNISLWPR [F12S] as the variant, how does the protein stability index read?
Answer: 4.1

Question: Which protein stability index does the source give for MTVEKEAPDAHGTVDKQNISLWPR [F12G] here?
Answer: 4.03

Question: For MTVEKEAPDAHETVDKQNISLWPR [F12E], which protein stability index is on record?
Answer: 4.38

Question: Which protein stability index does the source give for MTVEKEAPDAHNTVDKQNISLWPR [F12N] here?
Answer: 3.13

Question: Which protein stability index does the source give for MTVEKEAPDAHWTVDKQNISLWPR [F12W] here?
Answer: 3.35

Question: For MTVEKEAPDAHCTVDKQNISLWPR [F12C], which protein stability index is on record?
Answer: 3.72

Question: Which protein stability index does the source give for MTVEKEAPDAHYTVDKQNISLWPR [F12Y] here?
Answer: 3.16

Question: Which protein stability index does the source give for MTVEKEAPDAHLTVDKQNISLWPR [F12L] here?
Answer: 3.72

Question: For MTVEKEAPDAHPTVDKQNISLWPR [F12P], which protein stability index is on record?
Answer: 4.66

Question: With MTVEKEAPDAHMTVDKQNISLWPR [F12M] as the variant, how does the protein stability index read?
Answer: 4.14

Question: With MTVEKEAPDAHQTVDKQNISLWPR [F12Q] as the variant, how does the protein stability index read?
Answer: 4.5

Question: With MTVEKEAPDAHRTVDKQNISLWPR [F12R] as the variant, how does the protein stability index read?
Answer: 4.04

Question: For MTVEKEAPDAHTTVDKQNISLWPR [F12T], which protein stability index is on record?
Answer: 4.09

Question: Which protein stability index does the source give for MTVEKEAPDAHDTVDKQNISLWPR [F12D] here?
Answer: 4.92

Question: For MTVEKEAPDAHFTFDKQNISLWPR [V14F], which protein stability index is on record?
Answer: 2.42

Question: Which protein stability index does the source give for MTVEKEAPDAHFTLDKQNISLWPR [V14L] here?
Answer: 2.93

Question: Which protein stability index does the source give for MTVEKEAPDAHFTHDKQNISLWPR [V14H] here?
Answer: 3.13

Question: With MTVEKEAPDAHFTMDKQNISLWPR [V14M] as the variant, how does the protein stability index read?
Answer: 3.18

Question: Which protein stability index does the source give for MTVEKEAPDAHFTCDKQNISLWPR [V14C] here?
Answer: 3.27

Question: For MTVEKEAPDAHFTPDKQNISLWPR [V14P], which protein stability index is on record?
Answer: 3.79

Question: For MTVEKEAPDAHFTYDKQNISLWPR [V14Y], which protein stability index is on record?
Answer: 2.48

Question: Which protein stability index does the source give for MTVEKEAPDAHFTGDKQNISLWPR [V14G] here?
Answer: 2.35

Question: For MTVEKEAPDAHFTIDKQNISLWPR [V14I], which protein stability index is on record?
Answer: 3.45

Question: With MTVEKEAPDAHFTNDKQNISLWPR [V14N] as the variant, how does the protein stability index read?
Answer: 3.36

Question: With MTVEKEAPDAHFTADKQNISLWPR [V14A] as the variant, how does the protein stability index read?
Answer: 3.45

Question: With MTVEKEAPDAHFTRDKQNISLWPR [V14R] as the variant, how does the protein stability index read?
Answer: 3.05

Question: With MTVEKEAPDAHFTDDKQNISLWPR [V14D] as the variant, how does the protein stability index read?
Answer: 4.11

Question: Which protein stability index does the source give for MTVEKEAPDAHFTKDKQNISLWPR [V14K] here?
Answer: 3.41

Question: Which protein stability index does the source give for MTVEKEAPDAHFTTDKQNISLWPR [V14T] here?
Answer: 3.82

Question: Which protein stability index does the source give for MTVEKEAPDAHFTWDKQNISLWPR [V14W] here?
Answer: 2.65

Question: Which protein stability index does the source give for MTVEKEAPDAHFTSDKQNISLWPR [V14S] here?
Answer: 3.81

Question: Which protein stability index does the source give for MTVEKEAPDAHFTQDKQNISLWPR [V14Q] here?
Answer: 3.85

Question: For MTVEKEAPDAHFTEDKQNISLWPR [V14E], which protein stability index is on record?
Answer: 3.79

Question: With MTVEKEAPDAHFTVDKQNIVLWPR [S20V] as the variant, how does the protein stability index read?
Answer: 2.71

Question: Which protein stability index does the source give for MTVEKEAPDAHFTVDKQNIMLWPR [S20M] here?
Answer: 2.81

Question: With MTVEKEAPDAHFTVDKQNIKLWPR [S20K] as the variant, how does the protein stability index read?
Answer: 3.55

Question: Which protein stability index does the source give for MTVEKEAPDAHFTVDKQNICLWPR [S20C] here?
Answer: 3.39

Question: Which protein stability index does the source give for MTVEKEAPDAHFTVDKQNIRLWPR [S20R] here?
Answer: 3.3

Question: Which protein stability index does the source give for MTVEKEAPDAHFTVDKQNIGLWPR [S20G] here?
Answer: 3.29

Question: With MTVEKEAPDAHFTVDKQNILLWPR [S20L] as the variant, how does the protein stability index read?
Answer: 2.48

Question: Which protein stability index does the source give for MTVEKEAPDAHFTVDKQNIPLWPR [S20P] here?
Answer: 3.3

Question: Which protein stability index does the source give for MTVEKEAPDAHFTVDKQNIFLWPR [S20F] here?
Answer: 3.04

Question: With MTVEKEAPDAHFTVDKQNIILWPR [S20I] as the variant, how does the protein stability index read?
Answer: 2.66

Question: Which protein stability index does the source give for MTVEKEAPDAHFTVDKQNIALWPR [S20A] here?
Answer: 3.3

Question: For MTVEKEAPDAHFTVDKQNIDLWPR [S20D], which protein stability index is on record?
Answer: 4.04

Question: For MTVEKEAPDAHFTVDKQNITLWPR [S20T], which protein stability index is on record?
Answer: 3.43

Question: With MTVEKEAPDAHFTVDKQNIELWPR [S20E] as the variant, how does the protein stability index read?
Answer: 3.33

Question: With MTVEKEAPDAHFTVDKQNINLWPR [S20N] as the variant, how does the protein stability index read?
Answer: 3.07

Question: For MTVEKEAPDAHFTVDKQNIQLWPR [S20Q], which protein stability index is on record?
Answer: 3.1

Question: Which protein stability index does the source give for MTVEKEAPDAHFTVDKQNIHLWPR [S20H] here?
Answer: 3.2

Question: With MTVEKEAPDAHFTVDKQNIYLWPR [S20Y] as the variant, how does the protein stability index read?
Answer: 2.69

Question: Which protein stability index does the source give for MTVEKEAPDAHFTVDKQNIWLWPR [S20W] here?
Answer: 2.96

Question: With MTVEKEAPDAHFTVDKQNISLAPR [W22A] as the variant, how does the protein stability index read?
Answer: 4.63

Question: Which protein stability index does the source give for MTVEKEAPDAHFTVDKQNISLEPR [W22E] here?
Answer: 5.08

Question: For MTVEKEAPDAHFTVDKQNISLDPR [W22D], which protein stability index is on record?
Answer: 4.85

Question: For MTVEKEAPDAHFTVDKQNISLGPR [W22G], which protein stability index is on record?
Answer: 4.35

Question: For MTVEKEAPDAHFTVDKQNISLCPR [W22C], which protein stability index is on record?
Answer: 4.08

Question: Which protein stability index does the source give for MTVEKEAPDAHFTVDKQNISLFPR [W22F] here?
Answer: 3.91

Question: For MTVEKEAPDAHFDVDKQNISLWPR [T13D], which protein stability index is on record?
Answer: 3.96

Question: Which protein stability index does the source give for MTVEKEAPDAHFAVDKQNISLWPR [T13A] here?
Answer: 3.53

Question: With MTVEKEAPDAHFWVDKQNISLWPR [T13W] as the variant, how does the protein stability index read?
Answer: 2.54

Question: For MTVEKEAPDAHFRVDKQNISLWPR [T13R], which protein stability index is on record?
Answer: 2.66

Question: For MTVEKEAPDAHFHVDKQNISLWPR [T13H], which protein stability index is on record?
Answer: 3.03

Question: With MTVEKEAPDAHFYVDKQNISLWPR [T13Y] as the variant, how does the protein stability index read?
Answer: 3.59

Question: Which protein stability index does the source give for MTVEKEAPDAHFLVDKQNISLWPR [T13L] here?
Answer: 4.19

Question: For MTVEKEAPDAHFIVDKQNISLWPR [T13I], which protein stability index is on record?
Answer: 3.49

Question: Which protein stability index does the source give for MTVEKEAPDAHFFVDKQNISLWPR [T13F] here?
Answer: 3.13

Question: For MTVEKEAPDAHFQVDKQNISLWPR [T13Q], which protein stability index is on record?
Answer: 3.43

Question: Which protein stability index does the source give for MTVEKEAPDAHFVVDKQNISLWPR [T13V] here?
Answer: 3.42

Question: With MTVEKEAPDAHFNVDKQNISLWPR [T13N] as the variant, how does the protein stability index read?
Answer: 3.63
